Reference: PMC9467613 (mAbs, 2022)

What was measured:
Assay in all cases: SPR
[1] = target: B7-H4 purified monomeric recombinant human protein (Homo sapiens, UniProt Q7Z7D3)
B05 = target: B05
B01 = target: B01
G05 = target: G05
A06 = target: A06

| Kd [1] [nM] | koff [1] [s⁻¹] | kon [1] [M⁻¹ s⁻¹] | Kd (B05) [nM] | koff (B05) [s⁻¹] | Kd (B01) [nM] | koff (B01) [s⁻¹] | Kd (G05) [nM] | koff (G05) [s⁻¹] | Kd (A06) [nM] | koff (A06) [s⁻¹] | Binder |
| --- | --- | --- | --- | --- | --- | --- | --- | --- | --- | --- | --- |
| 7.43 | 0.0033 | 450000 | – | – | – | – | – | – | – | – | parental antibody against B7-H4, scFv-Fc (scFv, V domains shown) VH: EVQLVESGGGVVQPGRSLRLSCAASGFTFSSYSMNWVRQAPGKGLEWVSAISGSGGSTYYADSVKGRFTISRDNSKNTLYLQMNSLRAEDTAVYYCARKRWYGMDVWGQGTTVTVSS VL: SYELTQPPSVSVAPGKTARITCGGNNIGSKSVHWYQQKPGQAPVLVVYDDSDRPSGIPERFSGSNSGNTATLTISRVEAGDEADYYCQVWDSRTYVFGTGTKLTVL |
| – | – | – | < 0.068 | < 1e-05 | < 0.032 | < 1e-05 | < 0.063 | < 1e-05 | < 0.034 | < 1e-05 | B7-H4 purified monomeric recombinant human protein (natural protein) LIIGFGISGRHSITVTTVASAGNIGEDGILSCTFEPDIKLSDIVIQWLKEGVLGLVHEFKEGKDELSEQDEMFRGRTAVFADQVIVGNASLRLKNVQLTDAGTYKCYIITSKGKGNANLEYKTGAFSMPEVNVDYNASSETLRCEAPRWFPQPTVVWASQVDQGANFSEVSNTSFELNSENVTMKVVSVLYNVTINNTYSCMIENDIAKATGDIKVTESEIKRRSHLQLLNSKAS |
